The subject of this data set is T1, Tn5401 TnpA transposase (Bacillus thuringiensis var. morrisoni EG2158).
T1 sequence: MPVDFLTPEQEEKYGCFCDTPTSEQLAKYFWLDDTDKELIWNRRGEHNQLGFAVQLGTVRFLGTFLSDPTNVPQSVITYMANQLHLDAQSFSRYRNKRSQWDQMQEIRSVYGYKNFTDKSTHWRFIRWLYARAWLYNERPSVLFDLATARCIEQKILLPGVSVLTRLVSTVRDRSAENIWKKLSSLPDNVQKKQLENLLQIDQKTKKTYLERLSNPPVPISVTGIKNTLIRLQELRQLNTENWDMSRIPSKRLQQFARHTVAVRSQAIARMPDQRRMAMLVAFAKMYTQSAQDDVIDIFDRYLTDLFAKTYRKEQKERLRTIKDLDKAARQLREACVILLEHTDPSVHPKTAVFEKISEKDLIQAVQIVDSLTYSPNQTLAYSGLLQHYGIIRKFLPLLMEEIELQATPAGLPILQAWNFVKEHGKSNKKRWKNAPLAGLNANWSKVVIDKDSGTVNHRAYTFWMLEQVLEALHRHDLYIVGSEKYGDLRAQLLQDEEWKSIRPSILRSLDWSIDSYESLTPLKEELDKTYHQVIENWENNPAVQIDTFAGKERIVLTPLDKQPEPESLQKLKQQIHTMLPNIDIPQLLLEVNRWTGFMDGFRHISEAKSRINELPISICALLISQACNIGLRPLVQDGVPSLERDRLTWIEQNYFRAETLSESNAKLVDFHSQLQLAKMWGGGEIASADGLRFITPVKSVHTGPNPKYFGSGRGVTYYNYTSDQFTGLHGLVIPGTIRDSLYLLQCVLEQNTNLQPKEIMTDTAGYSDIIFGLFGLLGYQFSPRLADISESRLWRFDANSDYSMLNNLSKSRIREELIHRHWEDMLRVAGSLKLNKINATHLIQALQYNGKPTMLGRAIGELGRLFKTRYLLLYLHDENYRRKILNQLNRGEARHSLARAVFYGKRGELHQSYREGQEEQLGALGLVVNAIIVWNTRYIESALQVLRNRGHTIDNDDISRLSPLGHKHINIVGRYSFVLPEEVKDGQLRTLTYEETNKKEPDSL
The experiment in a line: cell_activity. To be noted: pEG922 in plasmid-free B.t. EG7566; 10^-1 to 10^-2 in a plasmid-containing strain; functional transposition, binding not measured directly.

The substance “Tn5401 transposon with 53 bp terminal inverted repeats” registered an activity (transposition frequency) of 0.0001.
